Measured values taken from US20150246136A1 (Bayer, published 2015).

T1: C4.4a (Homo sapiens, UniProt O95274 31-326)
T1 sequence (looked up): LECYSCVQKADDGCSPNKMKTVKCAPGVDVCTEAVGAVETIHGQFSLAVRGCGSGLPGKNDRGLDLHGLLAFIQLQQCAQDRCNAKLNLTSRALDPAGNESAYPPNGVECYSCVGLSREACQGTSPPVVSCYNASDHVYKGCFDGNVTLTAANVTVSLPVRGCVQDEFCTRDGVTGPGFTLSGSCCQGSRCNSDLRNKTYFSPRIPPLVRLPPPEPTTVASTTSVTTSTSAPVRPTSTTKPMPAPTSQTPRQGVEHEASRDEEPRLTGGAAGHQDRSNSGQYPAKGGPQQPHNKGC

B1: Example 301 (antibody, human IgG1, kappa, V domains shown)
VH: QVELVESGGGLVQPGGSLRLSCAASGFTFSSYGMSWVRQAPGKGLEWVSGISSLGSTTYYADSVKGRFTISRDNSKNTLYLQMNSLRAEDTAVYYCARTGSPGTFMHGDHWGQGTLVTVSS
VL: DIQMTQSPSSLSASVGDRVTITCRASQDINNYLSWYQQKPGKAPKLLIYGASNLQSGVPSRFSGSGSGTDFTLTISSLQPEDFAVYYCQQYYGRPTTFGQGTKVEIKR
modifications: linker-toxophore on cysteine S
B2: Example 303 (antibody, human IgG1, kappa, V domains shown)
VH: B1 VH
VL: B1 VL
modifications: linker-toxophore on lysine NH
B3: Example 306 (antibody, human IgG1, kappa, V domains shown)
VH: B1 VH
VL: B1 VL
modifications: linker-toxophore on lysine NH
B4: Example 304 (antibody, human IgG1, kappa, V domains shown)
VH: B1 VH
VL: B1 VL
modifications: linker-toxophore on cysteine S
B5: Example 302 (antibody, human IgG1, kappa, V domains shown)
VH: B1 VH
VL: B1 VL
modifications: linker-toxophore on cysteine S
B6: Example 305 (antibody, human IgG1, kappa, V domains shown)
VH: B1 VH
VL: B1 VL
modifications: linker-toxophore on cysteine S
B7: Example 217 (antibody, human IgG1, lambda, V domains shown)
VH: EVQLLESGGGLVQPGGSLRLSCAASGFTFSDYQMTWIRQTPGKGLEWVSGISWNGGSTHYADSVKGRFTISRDNSKNTLYLQMNSLRAEDTAVYYCAKGDYLVYSSYYFKSWGQGTLVTVSS
VL: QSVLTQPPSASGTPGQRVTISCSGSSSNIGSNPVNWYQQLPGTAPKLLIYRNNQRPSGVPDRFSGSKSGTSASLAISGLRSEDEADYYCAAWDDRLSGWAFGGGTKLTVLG
modifications: linker-toxophore on cysteine S
B8: Example 211 (antibody, human IgG1, lambda, V domains shown)
VH: EVQLLESGGGLVQPGGSLRLSCAASGFTFSSAWMSWVRQAPGKGLEWVSYISSSGSTIYYADSVKGRFTISRDNSKNTLYLQMNSLRAEDTAVYYCAREGLWAFDYWGQGTLVTVSS
VL: QSVLTQPPSVSGAPGQRVTISCTGSSSNIGAGYVVHWYQQLPGTAPKLLIYDNNKRPSGVPDRFSGSKSGTSASLAISGLRSEDEADYYCAAYDDSLSGPVFGGGTKLTVLG
modifications: linker-toxophore on cysteine S
B9: Example 215 (antibody, human IgG1, lambda, V domains shown)
VH: B8 VH
VL: B8 VL
modifications: linker-toxophore on cysteine S
B10: Example 214 (antibody, human IgG1, lambda, V domains shown)
VH: B8 VH
VL: B8 VL
modifications: linker-toxophore on cysteine S

Key:
Test in all cases: cell-based or functional assay
Carboanhydrase IX [1] = target: T2, Carboanhydrase IX (Homo sapiens, UniProt Q16790 38-459)
Carboanhydrase IX [2] = target: T2, Carboanhydrase IX; remark: listed apart in the source
C4.4a = target: T1, C4.4a

| Binder | EC50 (nM) HT29 (Carboanhydrase IX [1]) | MIAPaCa 2/CA9+ IC50 (Carboanhydrase IX [2]) | EC50 (nM) SNU-5 (Carboanhydrase IX [1]) | IC50 (nM) A549: C4.4a (C4.4a) |
| --- | --- | --- | --- | --- |
| B1 | > 30 nM | 22 nM |  |  |
| B2 | 2.2 nM | 0.009 nM | 3.3 nM |  |
| B3 | 66 nM | 21 nM | 33 nM |  |
| B4 | 0.05 nM | 0.019 nM | 0.6 nM |  |
| B5 | > 30 nM | 3.9 nM |  |  |
| B6 | 0.9 nM | 2.6 nM | 2.2 nM |  |
| B7 |  |  |  | 0.053 nM |
| B8 |  |  |  | 0.076 nM |
| B9 |  |  |  | 0.046 nM |
| B10 |  |  |  | 0.04 nM |
